Here are results for two molecules from PMC11096365, “Cryo-EM structures of the human Elongator complex at work” (Nature Communications, 2024).

The target of one series is T1, human ELP123 (Homo sapiens, UniProt Q9H9T3).
T1 construct: gene ELP3; recombinant ELP123 subcomplex (1:1:1, two lobes), codon-optimized ORFs, C-terminal Twin-Strep-Tag on ELP3, insect cells (SuperSf9-3); ELP1 148 kDa, ELP2 93 kDa, ELP3-TST 65 kDa; with Elongator complex protein 1; Elongator complex protein 2
T1 sequence (Q9H9T3 1-547): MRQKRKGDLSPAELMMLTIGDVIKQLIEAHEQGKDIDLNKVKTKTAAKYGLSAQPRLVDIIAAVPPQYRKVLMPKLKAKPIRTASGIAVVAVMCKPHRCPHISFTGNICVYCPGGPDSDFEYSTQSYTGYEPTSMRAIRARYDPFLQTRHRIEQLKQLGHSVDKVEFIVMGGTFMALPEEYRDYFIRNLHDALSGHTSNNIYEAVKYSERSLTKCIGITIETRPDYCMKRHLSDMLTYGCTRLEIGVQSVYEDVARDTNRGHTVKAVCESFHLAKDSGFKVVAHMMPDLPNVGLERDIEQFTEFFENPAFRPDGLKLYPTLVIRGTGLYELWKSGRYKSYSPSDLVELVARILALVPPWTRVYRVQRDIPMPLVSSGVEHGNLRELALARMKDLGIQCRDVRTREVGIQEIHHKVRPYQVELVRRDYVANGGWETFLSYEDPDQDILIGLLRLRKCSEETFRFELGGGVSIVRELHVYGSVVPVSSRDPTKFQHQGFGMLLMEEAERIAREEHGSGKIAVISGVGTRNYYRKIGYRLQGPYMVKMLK
T1 sequence (O95163 1-1332 partner): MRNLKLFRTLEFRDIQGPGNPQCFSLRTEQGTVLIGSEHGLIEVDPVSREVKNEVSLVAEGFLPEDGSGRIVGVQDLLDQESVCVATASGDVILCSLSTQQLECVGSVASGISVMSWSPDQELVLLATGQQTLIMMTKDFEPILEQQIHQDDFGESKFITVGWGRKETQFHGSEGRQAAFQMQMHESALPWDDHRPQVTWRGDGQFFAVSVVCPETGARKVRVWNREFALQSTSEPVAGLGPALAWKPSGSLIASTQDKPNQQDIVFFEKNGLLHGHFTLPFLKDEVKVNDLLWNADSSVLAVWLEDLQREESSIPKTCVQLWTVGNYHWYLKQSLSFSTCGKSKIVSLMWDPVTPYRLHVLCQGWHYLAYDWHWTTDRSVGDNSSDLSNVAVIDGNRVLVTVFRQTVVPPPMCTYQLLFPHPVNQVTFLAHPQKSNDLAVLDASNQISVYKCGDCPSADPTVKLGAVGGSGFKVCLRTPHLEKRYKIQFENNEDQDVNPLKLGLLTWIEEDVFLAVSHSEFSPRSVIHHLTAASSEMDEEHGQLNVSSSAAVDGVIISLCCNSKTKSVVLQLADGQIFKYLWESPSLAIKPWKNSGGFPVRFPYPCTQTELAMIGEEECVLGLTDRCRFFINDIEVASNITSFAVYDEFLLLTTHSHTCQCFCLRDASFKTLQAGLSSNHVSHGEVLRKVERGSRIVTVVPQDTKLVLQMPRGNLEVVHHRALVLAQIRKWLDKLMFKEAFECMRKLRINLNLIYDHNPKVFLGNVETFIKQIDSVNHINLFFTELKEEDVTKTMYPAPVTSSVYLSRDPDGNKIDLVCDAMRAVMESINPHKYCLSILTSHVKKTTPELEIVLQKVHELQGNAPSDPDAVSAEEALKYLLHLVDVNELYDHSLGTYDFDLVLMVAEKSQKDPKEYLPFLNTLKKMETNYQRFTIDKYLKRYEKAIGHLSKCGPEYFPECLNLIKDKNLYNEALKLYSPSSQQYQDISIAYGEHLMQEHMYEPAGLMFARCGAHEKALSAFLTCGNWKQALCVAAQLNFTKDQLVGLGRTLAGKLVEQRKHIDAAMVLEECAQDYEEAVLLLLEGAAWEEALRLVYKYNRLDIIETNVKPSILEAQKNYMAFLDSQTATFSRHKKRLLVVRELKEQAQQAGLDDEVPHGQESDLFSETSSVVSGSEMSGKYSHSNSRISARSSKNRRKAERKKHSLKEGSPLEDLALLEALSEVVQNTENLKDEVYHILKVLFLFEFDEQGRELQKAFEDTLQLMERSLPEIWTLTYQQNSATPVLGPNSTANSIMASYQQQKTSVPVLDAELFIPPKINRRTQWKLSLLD
T1 sequence (Q6IA86 1-826 partner): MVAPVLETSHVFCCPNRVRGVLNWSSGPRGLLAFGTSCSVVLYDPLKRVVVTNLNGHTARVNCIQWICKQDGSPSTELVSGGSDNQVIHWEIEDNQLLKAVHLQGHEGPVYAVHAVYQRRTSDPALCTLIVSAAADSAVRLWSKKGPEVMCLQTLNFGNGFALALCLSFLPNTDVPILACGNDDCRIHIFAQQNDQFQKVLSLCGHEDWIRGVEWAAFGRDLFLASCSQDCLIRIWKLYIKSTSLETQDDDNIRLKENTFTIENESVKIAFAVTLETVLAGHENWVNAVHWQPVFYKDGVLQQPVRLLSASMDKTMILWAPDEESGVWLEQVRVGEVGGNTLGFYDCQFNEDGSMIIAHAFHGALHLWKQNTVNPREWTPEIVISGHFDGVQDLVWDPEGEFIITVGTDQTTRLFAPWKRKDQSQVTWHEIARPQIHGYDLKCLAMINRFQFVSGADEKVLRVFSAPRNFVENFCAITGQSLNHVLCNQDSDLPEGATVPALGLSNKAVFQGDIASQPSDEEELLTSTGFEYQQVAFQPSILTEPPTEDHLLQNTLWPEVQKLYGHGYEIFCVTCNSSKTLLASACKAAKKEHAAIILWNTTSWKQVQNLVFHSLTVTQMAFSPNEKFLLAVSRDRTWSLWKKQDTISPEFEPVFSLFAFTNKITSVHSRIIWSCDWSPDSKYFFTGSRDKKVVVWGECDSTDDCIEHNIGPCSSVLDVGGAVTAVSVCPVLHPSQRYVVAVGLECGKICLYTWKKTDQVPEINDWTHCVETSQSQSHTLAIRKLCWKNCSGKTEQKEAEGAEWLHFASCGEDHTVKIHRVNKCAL
The experiment in a line: cryo-EM structure ([…] Å). As to conditions: with tRNA-GlnUUG and SAM; KAT domain of ELP3; pH 7.5; hydrolysis induced by tRNA. It counts as binding.

The next series has as its target ELP1;ELP2;ELP3 K280A (Homo sapiens;Homo sapiens;Homo sapiens, UniProt O95163;Q6IA86;Q9H9T3 1-1332;1-826;1-547, ||K280A). Briefly: MST; MST: 20 mM HEPES pH 7.5, 100 mM NaCl, 5 mM DTT, 0.05% Tween 20; incubated at 4 C 30 min, measured at 25 C; Cy5-tRNA 14 or 30 nM. Cryo-EM: 20 mM HEPES pH 7.5, 100 mM NaCl, 2 mM MgCl2, 2 mM DTT. The settings on record: protein: recombinant;recombinant;recombinant; tags: ;;C-terminal Twin-Strep-Tag; chain copies: 2;2;2; label: internal Cy5 (5% Cy5-CTP) for MST; tRNA fold.

For the next series, the target named is ELP1;ELP2;ELP3 R402T (Homo sapiens;Homo sapiens;Homo sapiens, UniProt O95163;Q6IA86;Q9H9T3 1-1332;1-826;1-547, ||R402T). The series is described as above. As to conditions: protein: recombinant;recombinant;recombinant; tags: ;;C-terminal Twin-Strep-Tag; chain copies: 2;2;2; label: internal Cy5 (5% Cy5-CTP) for MST; tRNA fold.
The target of a further series is ELP1;ELP2;ELP3 E474A (Homo sapiens;Homo sapiens;Homo sapiens, UniProt O95163;Q6IA86;Q9H9T3 1-1332;1-826;1-547, ||E474A). Described as above. The settings on record: protein: recombinant;recombinant;recombinant; tags: ;;C-terminal Twin-Strep-Tag; chain copies: 2;2;2; label: internal Cy5 (5% Cy5-CTP) for MST; tRNA fold.
The target in another series is ELP1;ELP2;ELP3 H476A (Homo sapiens;Homo sapiens;Homo sapiens, UniProt O95163;Q6IA86;Q9H9T3 1-1332;1-826;1-547, ||H476A). The series is described as above. As to conditions: protein: recombinant;recombinant;recombinant; tags: ;;C-terminal Twin-Strep-Tag; chain copies: 2;2;2; label: internal Cy5 (5% Cy5-CTP) for MST; tRNA fold.
Another series deals with ELP1;ELP2;ELP3 Y363A (Homo sapiens;Homo sapiens;Homo sapiens, UniProt O95163;Q6IA86;Q9H9T3 1-1332;1-826;1-547, ||Y363A). The description is as above. As to conditions: protein: recombinant;recombinant;recombinant; tags: ;;C-terminal Twin-Strep-Tag; chain copies: 2;2;2; label: internal Cy5 (5% Cy5-CTP) for MST; tRNA fold.
The next series has as its target ELP1;ELP2;ELP3 wild type (Homo sapiens;Homo sapiens;Homo sapiens, UniProt O95163;Q6IA86;Q9H9T3 1-1332;1-826;1-547, ||). The description is as above. As to conditions: protein: recombinant;recombinant;recombinant; tags: ;;C-terminal Twin-Strep-Tag; chain copies: 2;2;2; label: internal Cy5 (5% Cy5-CTP) for MST; tRNA fold.
The target in series [1] is ELP1;ELP2;ELP3 Y529A/Y530A (Homo sapiens;Homo sapiens;Homo sapiens, UniProt O95163;Q6IA86;Q9H9T3 1-1332;1-826;1-547, ||Y529A;Y530A). The description is as above. As to conditions: protein: recombinant;recombinant;recombinant; tags: ;;C-terminal Twin-Strep-Tag; chain copies: 2;2;2; label: internal Cy5 (5% Cy5-CTP) for MST; tRNA fold.
ELP1;ELP2;ELP3 Y529A/Y530A, sequence (Q9H9T3 whole entry Y529A/Y530A, chain 3 of 3, one chain of several): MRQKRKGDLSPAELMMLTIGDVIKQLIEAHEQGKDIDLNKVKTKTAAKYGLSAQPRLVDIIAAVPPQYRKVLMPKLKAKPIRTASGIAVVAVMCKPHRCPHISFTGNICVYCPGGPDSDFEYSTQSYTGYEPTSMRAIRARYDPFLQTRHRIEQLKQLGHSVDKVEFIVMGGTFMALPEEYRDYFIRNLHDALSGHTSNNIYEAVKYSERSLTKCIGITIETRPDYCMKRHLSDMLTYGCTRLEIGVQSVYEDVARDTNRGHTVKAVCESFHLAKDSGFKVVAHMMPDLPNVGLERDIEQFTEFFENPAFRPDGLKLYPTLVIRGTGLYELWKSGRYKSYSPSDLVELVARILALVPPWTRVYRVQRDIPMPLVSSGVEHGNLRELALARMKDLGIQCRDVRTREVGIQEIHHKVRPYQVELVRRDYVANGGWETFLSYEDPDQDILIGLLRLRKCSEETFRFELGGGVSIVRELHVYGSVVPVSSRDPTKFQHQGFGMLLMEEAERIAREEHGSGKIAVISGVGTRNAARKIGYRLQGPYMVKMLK
The next series deals with ELP1;ELP2;ELP3 R242K (Homo sapiens;Homo sapiens;Homo sapiens, UniProt O95163;Q6IA86;Q9H9T3 1-1332;1-826;1-547, ||R242K). Described as above. The settings on record: protein: recombinant;recombinant;recombinant; tags: ;;C-terminal Twin-Strep-Tag; chain copies: 2;2;2; label: internal Cy5 (5% Cy5-CTP) for MST; tRNA fold.
Another series has as its target ELP1;ELP2;ELP3 K164A (Homo sapiens;Homo sapiens;Homo sapiens, UniProt O95163;Q6IA86;Q9H9T3 1-1332;1-826;1-547, ||K164A). Described as above. The settings on record: protein: recombinant;recombinant;recombinant; tags: ;;C-terminal Twin-Strep-Tag; chain copies: 2;2;2; label: internal Cy5 (5% Cy5-CTP) for MST; tRNA fold.

Turning to `CC(=O)SCCNC(=O)CCNC(=O)[C@H](O)C(C)(C)COP(=O)(O)OP(=O)(O)OC[C@H]1O[C@@H](n2cnc3c(N)ncnc32)[C@H](O)[C@@H]1OP(=O)(O)O` [acetyl-CoA], at human ELP123, the “cryo-EM structure (2.87 Å)” value is recorded as “well-resolved ligand density that unambiguously fits a complete acetyl-CoA molecule”.

B1: tRNAGlnUUG (structured_RNA)
RNA: GGCCCCAUGGUGUAAUGGUUAGCACUCUGGACUUUGAAUCCAGCGAUCCGAGUUCAAAUCUCGGUGGGACCUCCA
On to B1, for which the binding result with ELP1;ELP2;ELP3 K280A, with ELP1;ELP2;ELP3 R402T, in the series with ELP1;ELP2;ELP3 E474A, with ELP1;ELP2;ELP3 H476A, with ELP1;ELP2;ELP3 Y363A and with ELP1;ELP2;ELP3 R242K was “binds” each time. The binding result with ELP1;ELP2;ELP3 K164A was “binds”. Also, the Kd in the series with ELP1;ELP2;ELP3 wild type was found to be 37.6 ± 5.3 nM; in [1] it was 94.7 ± 5.2 nM.
